Results: paper PMC7035113

Target: SA2-SCC1 complex (SA2 80-1060 in complex with SCC1 281-420) (UniProt Q8N3U4)
Assay: ITC

Chain of SA2-SCC1 complex (SA2 80-1060 in complex with SCC1 281-420) (Q8N3U4 80-1060, chain 1 of 2): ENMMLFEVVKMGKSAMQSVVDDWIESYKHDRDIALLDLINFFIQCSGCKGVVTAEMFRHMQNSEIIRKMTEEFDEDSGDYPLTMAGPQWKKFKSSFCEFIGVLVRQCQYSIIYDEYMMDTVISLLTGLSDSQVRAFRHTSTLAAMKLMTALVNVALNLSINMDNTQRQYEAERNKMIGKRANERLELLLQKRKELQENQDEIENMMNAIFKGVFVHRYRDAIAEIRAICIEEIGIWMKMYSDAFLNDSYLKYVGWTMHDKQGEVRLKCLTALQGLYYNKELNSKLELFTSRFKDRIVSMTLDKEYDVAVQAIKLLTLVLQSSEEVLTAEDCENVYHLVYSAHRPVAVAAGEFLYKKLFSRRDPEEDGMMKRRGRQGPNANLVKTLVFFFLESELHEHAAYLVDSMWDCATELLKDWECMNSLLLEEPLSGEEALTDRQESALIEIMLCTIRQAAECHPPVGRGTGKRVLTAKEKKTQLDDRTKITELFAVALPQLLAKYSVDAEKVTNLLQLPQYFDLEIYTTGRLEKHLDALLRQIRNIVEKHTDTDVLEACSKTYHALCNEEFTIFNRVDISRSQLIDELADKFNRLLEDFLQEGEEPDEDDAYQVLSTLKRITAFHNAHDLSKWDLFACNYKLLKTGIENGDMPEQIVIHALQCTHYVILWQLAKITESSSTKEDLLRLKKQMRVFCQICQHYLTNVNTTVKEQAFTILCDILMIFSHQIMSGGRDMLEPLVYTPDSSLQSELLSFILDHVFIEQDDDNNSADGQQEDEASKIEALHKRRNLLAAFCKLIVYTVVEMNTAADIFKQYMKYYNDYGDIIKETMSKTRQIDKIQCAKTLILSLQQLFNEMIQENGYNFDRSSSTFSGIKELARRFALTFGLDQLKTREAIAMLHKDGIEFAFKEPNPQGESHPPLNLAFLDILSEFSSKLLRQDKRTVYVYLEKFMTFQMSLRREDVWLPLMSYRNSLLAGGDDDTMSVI
Chain of SA2-SCC1 complex (SA2 80-1060 in complex with SCC1 281-420) (O60216 281-420, chain 2 of 2, further chain): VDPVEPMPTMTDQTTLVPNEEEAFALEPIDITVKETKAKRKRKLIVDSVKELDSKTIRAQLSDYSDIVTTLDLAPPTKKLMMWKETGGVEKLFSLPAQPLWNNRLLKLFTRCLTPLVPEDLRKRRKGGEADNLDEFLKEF

## Shugoshin (SGO1) peptide 331-341 (from UniProt Q5FBB7 331-341)
  Kd: 13.5 µM
  dH: -10.7 kcal/mol
